Measured values: article PMC4987164 (Comparative biochemistry and physiology. Part D, Genomics & …, 2016)
“Also recorded” adds a separate entry of the source. Read-outs that look alike come from different tables or passages of the source.

Key:
[1] = molecular target: T1, human estrogen receptor alpha ligand binding domain (ESR1-LBD) (Homo sapiens, UniProt P03372); test: Fluorescence polarization competitive ligand binding assay; conditions: relative binding affinity calculated from IC50, E2 set at 100%
T1 sequence (P03372 311-547 limits assumed): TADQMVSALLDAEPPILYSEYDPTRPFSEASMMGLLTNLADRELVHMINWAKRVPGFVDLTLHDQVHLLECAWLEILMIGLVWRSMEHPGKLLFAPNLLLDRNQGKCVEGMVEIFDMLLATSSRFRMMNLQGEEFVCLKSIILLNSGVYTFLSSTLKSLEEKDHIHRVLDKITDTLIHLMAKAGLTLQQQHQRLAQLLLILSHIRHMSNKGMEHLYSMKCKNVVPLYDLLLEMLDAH

[2] = molecular target: T2, ESR1 ligand-binding domain (GST-ER LBD) / SRC-3 peptides (Homo sapiens, UniProt P03372); test: TR-FRET co-activator peptide recruitment assay, SRC-3 peptides; assay type: biochemical; conditions: all SRC-3 peptides tested; listed as BPA
T2 sequence (P03372 311-547 limits assumed): T1 sequence (P03372 311-547 limits assumed)

[3] = molecular target: T3, ESR1 (Homo sapiens, UniProt P03372); test: Direct; conditions: read-out: binding affinity (Kd) for the ESR1–Fl-E1 complex; saturation binding curves (data not shown)
T3 sequence (P03372 311-547 limits assumed): T1 sequence (P03372 311-547 limits assumed)

[4] = molecular target: SRC-1 RID (Homo sapiens) (UniProt Q15788); conditions: cited from earlier work
[5] = molecular target: SRC-1 RID (Homo sapiens) (UniProt Q15788); conditions: cited from earlier work; remark: listed apart in the source
[6] = molecular target: ESR1 Ligand-binding domain tagged with glutathione-S-transferase (human); test: AlphaScreen or HTRF

Sequence of ESR1 (P03372 whole entry): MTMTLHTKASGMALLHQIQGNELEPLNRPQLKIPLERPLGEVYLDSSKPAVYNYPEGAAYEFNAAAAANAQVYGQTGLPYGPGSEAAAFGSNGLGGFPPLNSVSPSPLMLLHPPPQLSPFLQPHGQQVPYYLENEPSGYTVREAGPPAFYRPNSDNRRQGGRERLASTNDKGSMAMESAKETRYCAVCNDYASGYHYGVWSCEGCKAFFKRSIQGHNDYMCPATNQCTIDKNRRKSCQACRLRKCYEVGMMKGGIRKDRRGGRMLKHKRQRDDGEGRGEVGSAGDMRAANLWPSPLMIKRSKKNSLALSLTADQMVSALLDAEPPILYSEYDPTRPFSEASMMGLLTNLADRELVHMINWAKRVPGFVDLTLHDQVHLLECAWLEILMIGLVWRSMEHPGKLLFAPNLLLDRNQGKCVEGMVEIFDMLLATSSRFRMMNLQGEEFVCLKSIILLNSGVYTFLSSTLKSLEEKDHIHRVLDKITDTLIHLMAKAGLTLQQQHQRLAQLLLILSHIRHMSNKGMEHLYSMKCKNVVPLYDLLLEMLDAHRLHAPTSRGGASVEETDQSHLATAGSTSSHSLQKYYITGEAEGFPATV
Sequence of SRC-1 RID (Homo sapiens) (Q15788 570-780): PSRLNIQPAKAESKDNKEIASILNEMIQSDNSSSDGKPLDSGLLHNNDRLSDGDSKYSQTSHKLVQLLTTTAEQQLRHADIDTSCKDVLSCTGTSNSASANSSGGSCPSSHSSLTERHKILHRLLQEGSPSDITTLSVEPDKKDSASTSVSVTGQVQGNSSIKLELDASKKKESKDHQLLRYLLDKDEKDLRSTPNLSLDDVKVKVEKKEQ

For CC(C)(c1ccc(O)cc1)c1ccc(O)cc1 [Bisphenol-A, bisphenol-A], the RBA [1] was 0.29% and the “recruitment of SRC-3 peptides to ESR1 (in words)” value [2] was “failed to induce interaction of the receptor with SRC-3 peptides; also recorded: failed to recruit any of the SRC-3 peptides”.
Molecule CC12CCC3c4ccc(O)cc4CCC3C1CCC2=NNC(=S)Nc1ccc2c(c1)C(=O)OC21c2ccc(O)cc2Oc2cc(O)ccc21 (stereo not shown) [Fl-E1] has a Kd [3] of 2.3 nM.
In the case of ESR1 (from UniProt P03372), the Kd [4] is given as 104 nM and the Kd [5] is given as 21 nM.
SRC-1(1) peptide gave an EC50 of 17β-estradiol for recruitment of the peptide [6] of 8.44 nM.
For SRC-1(2) peptide, the EC50 of 17β-estradiol for recruitment of the peptide [6] was 5.08 nM and the EC50 of bisphenol-A for recruitment of the peptide [6] was 32.3 nM.
Molecule SRC-3(2) peptide has an EC50 of 17β-estradiol for recruitment of the peptide [6] of 7.19 nM.
Molecule SRC-3(3) peptide has an EC50 of 17β-estradiol for recruitment of the peptide [6] of 2.74 nM.
